The numbers were not newly measured in paper PMC6396024, “Artemin and an Artemin-Derived Peptide, Artefin, Induce Neuronal Survival, and Differentiation Through Ret and NCAM” (Frontiers in Molecular Neuroscience, 2019), which cites them from elsewhere.

The subject of data set [1] is mice. The note with it: intracerebroventricular, ref Mannelli et al., 2011; cited from earlier work. From the text: (§1) Artemin (ARTN) is a member of the glial cell line-derived neurotrophic factor family ligands (GFLs) which includes three other members: glial cell line-derived neurotrophic factor (GDNF), neurturin (NRTN), and persephin (PSPN) ([Baloh et al., 1998b]; [Airaksinen and Saarma, 2002]). GFLs affect the generation, survival, and growth of neurons in different CNS neuronal populations, including midbrain dopaminergic neurons, central motor neurons, and noradrenergic neurons ([Airaksinen and Saarma, 2002]). Similar to GDNF, ARTN is a potential neuroprotective agent as it promotes the survival of dopam ...

Data set [2] relates to dopaminergic neurons. Particulars: in vitro; ref Rosenblad et al., 2000; Sariola and Saarma, 2003; cited from earlier work.
Description: as §1

B1: recombinant human Artemin (ARTN) (ligand, UniProt Q5T4W7 108-220, looked up)
chain: AGGPGSRARAAGARGCRLRSQLVPVRALGLGHRSDELVRFRFCSGSCRRARSPHDLSLASLLGAGALRPPPGSRPVSQPCCRPTRYEAVSFMDVNSTWRTVDRLSATACGCLG
notes: Artemin (ARTN), human, UniProt D3DPX9; source: bought: R&D Systems
Turning to B1, the antidepressant effects result in data set [1] is “dose-dependent antidepressant effects”. Moreover, the “survival of dopaminergic neurons” value in data set [2] is given as “promotes the survival of dopaminergic neurons in vitro”.
